Data: publication PMC3877120, “Pentavalent Single-Domain Antibodies Reduce Campylobacter jejuni Motility and Colonization in Chickens” (PLoS ONE, 2013)

How the values were obtained:
[1] = target: T1, C. jejuni 81–176 flagella (Campylobacter jejuni strain 81–176, biotin (Sulfo-NHS-LC-LC-biotin), in the SPR only | biotin (Sulfo-NHS-LC-LC-biotin), in the SPR only); assay: SPR; Biacore 3000; biotinylated flagella (700–900 RU) captured on an SA sensor chip; VHHs injected at 40 µl/min; 25°C; 10 mM HEPES pH 7.4, 150 mM NaCl, 3 mM EDTA, 0.005% P20; 1:1 interaction model; settings: both partners purified
T1 construct: flagellin FlaA of C. jejuni strain 81–176; flagellin FlaB of C. jejuni strain 81–176; also called flagellin; flagella protein; source: purified from C. jejuni 81–176 (sheared, ultracentrifugation, 1% SDS wash); also on formalin-fixed C. jejuni 81–176 cells
T1 chain 1: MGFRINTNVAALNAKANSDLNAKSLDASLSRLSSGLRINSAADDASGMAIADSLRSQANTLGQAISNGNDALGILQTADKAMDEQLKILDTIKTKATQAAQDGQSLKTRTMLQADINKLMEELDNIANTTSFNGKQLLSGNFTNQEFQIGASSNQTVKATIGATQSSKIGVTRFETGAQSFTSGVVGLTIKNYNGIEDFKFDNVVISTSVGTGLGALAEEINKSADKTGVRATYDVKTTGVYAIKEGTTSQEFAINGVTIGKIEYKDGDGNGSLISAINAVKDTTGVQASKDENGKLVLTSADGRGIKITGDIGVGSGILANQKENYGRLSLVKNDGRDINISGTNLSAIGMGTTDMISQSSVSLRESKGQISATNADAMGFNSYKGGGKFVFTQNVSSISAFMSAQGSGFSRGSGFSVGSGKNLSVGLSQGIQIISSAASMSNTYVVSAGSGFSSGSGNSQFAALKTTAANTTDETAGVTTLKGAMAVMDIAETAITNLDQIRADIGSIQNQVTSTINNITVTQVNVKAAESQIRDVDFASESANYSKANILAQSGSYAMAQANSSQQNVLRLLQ
T1 chain 2: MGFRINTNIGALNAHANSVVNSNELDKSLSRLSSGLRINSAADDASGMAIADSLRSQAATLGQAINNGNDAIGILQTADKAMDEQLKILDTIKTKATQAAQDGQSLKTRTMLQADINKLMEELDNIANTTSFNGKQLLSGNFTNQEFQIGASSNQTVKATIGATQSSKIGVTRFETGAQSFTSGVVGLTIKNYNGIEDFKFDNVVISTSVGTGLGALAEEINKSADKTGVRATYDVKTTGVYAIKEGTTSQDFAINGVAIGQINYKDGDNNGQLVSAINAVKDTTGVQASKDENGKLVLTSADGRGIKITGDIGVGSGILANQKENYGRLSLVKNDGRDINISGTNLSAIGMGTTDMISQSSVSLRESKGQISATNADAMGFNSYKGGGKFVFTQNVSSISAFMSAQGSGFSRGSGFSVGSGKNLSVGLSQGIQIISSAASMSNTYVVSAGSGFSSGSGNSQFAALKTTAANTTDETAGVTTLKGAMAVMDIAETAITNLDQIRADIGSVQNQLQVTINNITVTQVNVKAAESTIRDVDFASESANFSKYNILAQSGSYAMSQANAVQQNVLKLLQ

[2] = target: T1, C. jejuni 81–176 flagella; assay: ELISA; C. jejuni 81–176 flagella coated on Maxisorp plates (5 µg/ml in PBS); monomeric or pentameric VHH at 10 to 0.0001 µg/ml, 1 h at 37°C; detected with anti-His6-HRP; concentration of 50% maximum binding; settings: both partners purified

B1: FlagV1M (monomeric flagella-specific VHH FlagV1) (VHH)
VHH: QVKLEESGGGLVQAGGSRRLSCATSGLTFRNFHMAWFRQVAGKEREVVAAISWSRDRQYYPDPVKGRFTITRDNAKNTVYLQMNSLKPEDTAVYYCAARTASASGDWYKGSYQYWGQGTQVTVSS
notes: llama VHH from an immune phage display library; also called FlagV1 VHH; source: E. coli TG1, periplasm, purified (IMAC; Superdex 75 before SPR)
B1 showed a Kd [1] of 20 nM, a koff [1] of 0.002 s⁻¹ and a kon [1] of 100000 M⁻¹ s⁻¹. It also gave an EC50 [2] of 15.6 nM.
